One molecule from patent US6800467B1, “Polypeptides having aminopeptidase activity and nucleic acids encoding same” (Novozymes Biotech, Inc., priority 1997, dated 2004) can be followed below.

Holding throughout (format): biochemical
The subject of data set [1] is wheat gluten meal tablets. As to the kind of experiment: Degree of hydrolysis (DH) assay, gluten. The settings on record: 50° C., 18 hours. The procedure:
(§1) The purified aminopeptidase II described in Example 11 was tested in degree of hydrolysis assays using soy, wheat gluten, and casein as substrates according to the following procedure.
(§2) The degree of hydrolysis (DH) assays were performed at 50° C. for 18 hours as a mini-hydrolysis on a 10 ml scale using soy bean meal tablets, wheat gluten meal tablets, and sodium-caseinate at a 2% concentration adjusted to pH 7, if necessary, with no pH adjustment during hydrolysis. The hydrolysates were inactivated at 85° C. for 3 minutes in a waterbath. The enzymes used were FLAVOURZYME™ and aminopeptidase II. The enzymes were dosed as follows. […] Upon hydrolysis, p-nitroanilide is liberated turning the solution yellow which is monitored 405 nm.
(§3) The degree of hydrolysis (DH), as defined as described by Adler-Nissen (1986, Enzymic Hydrolysis of Food Proteins, Elsevier Applied Science Publishers), was determined by reaction of the supernatant with OPA (ortho-phtaldialdehyde, Sigma Chemical Co., St. Louis, Mo.) according to the following procedure The hydrolysate was diluted 100-fold into distilled water. […] The solution was then shaken well and after 2 minutes exactly, the absorbance at 340 nm was measured and compared to the absorbance of a 0.95 mM L-serine (distilled water) solution after subtraction of the blank value (water reacted with OPA reagent). […]

A short description of data set [2]: Kinetic parameters of aminopeptidase II for p-nitroanilides at pH 7.0 and 25° C. The following applies: pH 7.0, 25° C. The procedure:
The purified aminopeptidase II described in Example 11 was used in the following characterization.
Kinetic parameters of the aminopeptidase II were determined for several p-nitroanilides (pNA) including Leu-pNA, Gly-pNA, Ala-pNA, and Pro-pNA (Sigma Chemical Co., St. Louis, Mo., or Bachem, Torrance, Calif.). Stock solutions of 100 mg of each p-nitroanilide per ml of dimethylsulfoxide were diluted with 50 mM potassium phosphate pH 7.0 buffer to concentrations ranging from 0.0064 to 9.56 mM. […] The reaction of the aminopeptidase II with the p-nitroanilide was initiated when a 100 μl aliquot of the enzyme solution in 50 mM potassium phosphate pH 7.0 was added to 100 μl of a substrate solution in a microtiter plate well and monitored at 405 nm and 25° C. using a THERMOmax Microplate Reader (Molecular Devices Corp., Sunnyvale, Calif.).

Data set [3] can be described thus: Kinetic parameters (Lineweaver-Burke plot) at pH 7.5. The settings on record: for kcat: average molecular weight of 97 kDa used. The procedure:
The kinetic parameters for various aminopeptidase II substrates was determined using the following protocol. Purified aminopeptidase II with an A280 of 0.581 was used. Each substrate was dissolved in DMSO to a concentration of 100 mg/ml and then diluted 50 fold in 50 mM sodium phosphate pH7.5 buffer to 2 mg/ml. The substrates included Leu-pNA, Glu-pNA (Bachem, Torrance, Calif.), and Ala-pNA. In a 96 well microtiter plate, 10 μl of purified aminopeptidase II was incubated with each substrate as follows except 50 µl of purified aminopeptidase II was incubated with Glu-pNA, and the absorbance at 405 nm was measured for 4 minutes:
1. 200 μl of 2 mg/ml substrate+0 μl of 50 mM sodium phosphate buffer pH 7.5
2. 100 μl of 2 mg/ml substrate+100 μl of 50 mM sodium phosphate buffer pH 7.5
3. 50 μl of 2 mg/ml substrate+150 μl of 50 mM sodium phosphate buffer pH 7.5
4. 25 μl of 2 mg/ml substrate+175 μl of 50 mM sodium phosphate buffer pH 7.5

Another data set has as its system gelatin. As to the kind of experiment: Degree of hydrolysis (DH) assay, gelatin.
A further data set concerns sodium-caseinate. The experiment in a line: Degree of hydrolysis (DH) assay, casein. The following applies: vs 3 LAPUs FLAVOURZYME alone. The procedure:
as §1, §2, §3

The mark [4] stands for this setting: 2 LAPUs aminopeptidase II added to 3 LAPUs FLAVOURZYME
Where [5] appears, read: substrate Ala-pNA, enzyme of Example 11.
Where [6] appears, read: substrate Gly-pNA, enzyme of Example 11.
Setting [7] is: substrate Pro-pNA, enzyme of Example 11.

B1: aminopeptidase II: Recombinant Aspergillus oryzae 1568 (ATCC 20386) aminopeptidase II, 496 amino acids (SEQ ID NO:2), produced in Aspergillus oryzae or Fusarium (protein)
chain: MRSLLWASLLSGVLAGRALVSPDEFPEDIQLEDLLEGSQQLEDFAYAYPERNRVFGGKAHDDTVNYLYEELKKTGYYDVYKQPQVHLWSNADQTLKVGDEEIEAKTMTYSPSVEVTADVAVVKNLGCSEADYPSDVEGKVALIKRGECPFGDKSVLAAKAKAAASIVYNNVAGSMAGTLGAAQSDKGPYSAIVGISLEDGQKLIKLAEAGSVSVDLWVDSKQENRTTYNVVAQTKGGDPNNVVALGGHTDSVEAGPGINDDGSGIISNLVIAKALTQYSVKNAVRFLFWTAEEFGLLGSNYYVSHLNATELNKIRLYLNFDMIASPNYALMIYDGDGSAFNQSGPAGSAQIEKLFEDYYDSIDLPHIPTQFDGRSDYEAFILNGIPSGGLFTGAEGIMSEENASRWGGQAGVAYDANYHAAGDNMTNLNHEAFLINSKATAFAVATYANDLSSIPKRNTTSSLHRRARTMRPFGKRAPKTHAHVSGSGCWHSQVEA
In general, Km refers to the concentration of substrate that gives half-maximal velocity. The term kcat denotes the maximal rate divided by the concentration of active sites. Take B1: the “increase of absolute DH” value was 6% in data set [1] (setting [4]); 9% in data set [1] (5 LAPUs aminopeptidase II added to 3 LAPUs FLAVOURZYME); 4.9% in the data set on gelatin (2 LAPUs added to 3 LAPUs FLAVOURZYME); 5.3% in the data set with gelatin (5 LAPUs added to 3 LAPUs FLAVOURZYME); 7% with sodium-caseinate (1 LAPU aminopeptidase II added to 3 LAPUs FLAVOURZYME); 9% with sodium-caseinate (setting [4]). In addition, the Km in data set [2] (setting [5]) worked out at 11 mM; in data set [2] (setting [6]), 0.3 mM; in data set [2] (substrate Leu-pNA, enzyme of Example 11 (produced in Aspergillus)) it was 7 mM; in data set [2] (setting [7]) it was 2 mM; in data set [3] (substrate Ala-pNA, enzyme of Example 15) it was 1.49 mM; in data set [3] (substrate Glu-pNA, enzyme of Example 15), 1.17 mM. Also, the Km in data set [3] (substrate Leu-pNA, enzyme of Example 15 (produced by Fusarium)) was found to be 5.78 mM. Besides, the Vmax is 1200 relative units in data set [2] (setting [5]); 1670 relative units in data set [2] (setting [6]); 6400 relative units in data set [2] (substrate Leu-pNA, enzyme of Example 11); 120 relative units in data set [2] (setting [7]). Also, the kcat was determined as 8.217 min⁻¹ in data set [3] (substrate Glu-pNA) and 230.9 min⁻¹ in data set [3] (substrate Leu-pNA).
